In experiment [1] the target is T1, mFc-hNKG2D (human, UniProt P26718 73-216).
T1 construct: extracellular domain; Made in house (Dragonfly Tx); the order of tag and ECD follows the name mFc-hNKG2D; also called mFc-tagged human NKG2D; not shown: mouse Fc tag
T1 sequence (looked up): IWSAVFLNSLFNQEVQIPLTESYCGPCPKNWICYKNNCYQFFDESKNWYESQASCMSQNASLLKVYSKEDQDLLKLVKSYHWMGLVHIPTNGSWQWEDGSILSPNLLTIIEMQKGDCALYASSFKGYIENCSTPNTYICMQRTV
Kind of experiment: SPR Biacore 8K 37 C; mFc-hNKG2D captured on anti-mFc chip, TriNKET as analyte; 1:1 kinetic fit; pH 5.0 control. Background: In SPR one partner is held on a chip, and binding of the other changes the refractive index at the surface.

Experiment [2] has as its target T2, Human CLEC12A-His (human, UniProt Q5QGZ9 65-265).
T2 construct: Recombinant soluble protein made in house (Dragonfly Tx); The hCLEC12A spot of the HuProt array is written under this molecule as well; also called hCLEC12A-His; hCLEC12A; not shown: His tag
T2 sequence: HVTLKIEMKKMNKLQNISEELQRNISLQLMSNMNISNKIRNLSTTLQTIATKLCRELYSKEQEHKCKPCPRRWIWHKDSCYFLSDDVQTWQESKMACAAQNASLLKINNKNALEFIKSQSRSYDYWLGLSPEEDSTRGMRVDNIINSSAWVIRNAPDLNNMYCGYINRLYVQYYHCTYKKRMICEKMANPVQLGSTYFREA
Description: SPR Biacore 8K 37 C; TriNKET captured on anti-hFc chip, hCLEC12A-His as analyte; 1:1 fit; control sample, n=2.

The target of experiment [3] is T2, Human CLEC12A-His. Description: cell-based or functional assay.
Experiment [4] deals with T1, mFc-hNKG2D. Kind of experiment: SPR Biacore 8K 37 C; mFc-hNKG2D captured on anti-mFc chip, TriNKET as analyte; steady state affinity fit.
Description: Association was monitored for 60 seconds, and dissociation was monitored for 60 seconds. Surfaces were regenerated between cycles with three pulses of 10 mM glycine-HCl (pH 1.7) injected for 20 seconds at 100 μL/min.
Two different fits were utilized to obtain the equilibrium affinity data: steady state affinity fit and kinetic fit.
For experiment [5], the target named is T1, mFc-hNKG2D. Kind of experiment: SPR Biacore 8K 37 C; mFc-hNKG2D captured on anti-mFc chip, TriNKET as analyte; steady state fit; after 2 wks 40 C at pH 5.0.
Description: (§1) Association was monitored for 60 seconds and dissociation was monitored for 60 seconds. Surfaces were regenerated between cycles with three pulses of 10 mM glycine-HCl, pH 1.7 injected for 20 seconds at 100 μL/min. HBS-EP+ (1×) buffer was used throughout the experiment. Data were analyzed using Biacore 8K Insight evaluation software (GE Healthcare).
For experiment [6], the target named is T1, mFc-hNKG2D. Description: SPR Biacore 8K 37 C; mFc-hNKG2D captured on anti-mFc chip, TriNKET as analyte; steady state fit; control sample.
Description: as §1
For experiment [7], the target named is T3, Human CD16a V158 (FcγRIIIa V158) (human, UniProt P08637 17-208, biotinylated (site not stated)).
T3 construct: V158 is the allele name in mature numbering; also called hCD16aV; hCD16a V158
Description: SPR; biotinylated CD16a V158 captured on SA chip, TriNKET as analyte; 1:1 kinetic fit; control sample.

The results in this text go back to patent publication US20220119534A1 (DRAGONFLY THERAPEUTICS, published 2022).

One may read the Kd as a measure of binding affinity in units of concentration. For orientation: koff means the first-order rate constant of dissociation. A high value points to fast dissociation. As usually defined, the kon is the rate constant with which the complex forms. Low values mean slower complex formation, high ones faster complex formation.

Several values for one entry are separate records, joined by “and”; a condition that tells them apart may be missing. Equal values may be shown once.

T3 sequence (P08637 17-208 F176V limits assumed): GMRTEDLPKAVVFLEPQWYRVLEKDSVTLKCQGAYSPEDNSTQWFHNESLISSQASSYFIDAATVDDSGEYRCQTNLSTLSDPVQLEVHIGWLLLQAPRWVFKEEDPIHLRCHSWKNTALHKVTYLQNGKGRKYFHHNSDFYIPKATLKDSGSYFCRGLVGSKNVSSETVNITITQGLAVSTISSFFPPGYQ

B1: F3'-1602 TriNKET (bispecific antibody, human IgG1, kappa)
chain: QLQLQESGPGLVKPSETLSLTCTVSGFSLTNYGLHWIRQPPGKCLEWIGVIWSGGKTDYNPSLKSRVTISKDTSKNQFSLKLSSVQAADTAVYYCAKYDYDDSLDYWGQGTLVTVSSGGGGSGGGGSGGGGSGGGGSDIQMTQSPSSLSASVGDRVTITCHASQNINFWLSWYQQKPGKAPKLLIYEASNLHTGVPSRFSGSGSGTRFTLTISSLQPEDIATYYCQQSHSYPLTFGCGTKLEIKGSDKTHTCPPCPAPELLGGPSVFLFPPKPKDTLMISRTPEVTCVVVDVSHEDPEVKFNWYVDGVEVHNAKTKPREEQYNSTYRVVSVLTVLHQDWLNGKEYKCKVSNKALPAPIEKTISKAKGQPREPRVYTLPPCRDELTKNQVSLTCLVKGFYPSDIAVEWESNGQPENNYKTTPPVLVSDGSFTLYSKLTVDKSRWQQGNVFSCSVMHEALHNHYTQKSLSLSPG
heavy: EVQLVESGGGLVKPGGSLRLSCAASGFTFSSYSMNWVRQAPGKGLEWVSSISSSSSYIYYADSVKGRFTISRDNAKNSLYLQMNSLRAEDTAVYYCARGAPIGAAAGWFDPWGQGTLVTVSSASTKGPSVFPLAPSSKSTSGGTAALGCLVKDYFPEPVTVSWNSGALTSGVHTFPAVLQSSGLYSLSSVVTVPSSSLGTQTYICNVNHKPSNTKVDKKVEPKSCDKTHTCPPCPAPELLGGPSVFLFPPKPKDTLMISRTPEVTCVVVDVSHEDPEVKFNWYVDGVEVHNAKTKPREEQYNSTYRVVSVLTVLHQDWLNGKEYKCKVSNKALPAPIEKTISKAKGQPREPQVCTLPPSRDELTENQVSLTCLVKGFYPSDIAVEWESNGQPENNYKTTPPVLDSDGSFFLYSWLTVDKSRWQQGNVFSCSVMHEALHNHYTQKSLSLSPG
light: DIQMTQSPSSVSASVGDRVTITCRASQGISSWLAWYQQKPGKAPKLLIYAASSLQSGVPSRFSGSGSGTDFTLTISSLQPEDFATYYCQQGVSFPRTFGGGTKVEIKRTVAAPSVFIFPPSDEQLKSGTASVVCLLNNFYPREAKVQWKVDNALQSGNSQESVTEQDSKDSTYSLSSTLTLSKADYEKHKVYACEVTHQGLSSPVTKSFNRGEC
notes: Trispecific F3' format: CLEC12A scFv-Fc paired with NKG2D Fab-Fc; Stressed and control samples of the stability studies are the same molecule; also called AB0237
In the case of B1, the Kd is 678 nM in experiment [1]; 1.11 nM in experiment [2]; 709 nM and 751 nM and 740 nM in experiment [4]; 677 nM in experiment [5]; 771 nM in experiment [6]; 212 nM in experiment [7]. For the same molecule, the koff is 0.128 s⁻¹ in experiment [1], 0.000873 s⁻¹ in experiment [2] and 0.024 s⁻¹ in experiment [7]. The on-rate (kon) in experiment [1] worked out at 189000 M⁻¹ s⁻¹; in experiment [2], 791000 M⁻¹ s⁻¹; in experiment [7], 113000 M⁻¹ s⁻¹. For the same molecule, the “EC50 (nM), KHYG-1-CD16aV cytotoxicity assay, PL-21 cells” value in experiment [3] came to 0.12 nM.
